From PMC5301497, “Dimerisation induced formation of the active site and the identification of three metal sites in EAL-phosphodiesterases” (Scientific Reports, 2017)

B1: EAL domain of PA3825 (residues 255–517) (domain or fragment, Pseudomonas aeruginosa PAO1, UniProt Q9HXH7 255-517, looked up)
chain: SRRVASPSSELRRALEANEFIPYYQPLSPGQGGRWIGVEVLMRWRHPREGLIRPDLFIPFAERSGLIVPMTRALMRQVAEDLGGHAGKLEPGFHIGFNISATHCHELALVDDCRELLAAFPPGHITLVLELTERELIESSEVTDRLFDELHALGVKIAIDDFGTGHSSLAYLRKFQVDCLKIDQSFVARIGIDTLSGHILDSIVELSAKLDLDIVAEGVETPEQRDYLAARGVDYLQGYLIGRPMPLESLLSSLTVQEGQGAS
notes: PA3825, Pseudomonas aeruginosa PAO1, EAL phosphodiesterase domain, residues 255-517; The residue numbers of the results (Glu39, Asp160, Asp161, Glu217, loop 160-170) cannot count on the full-length protein; they seem to count on the crystallised domain or the PDB entries; Cloned into the popinF vector; Seen as a 'closed dimer' in the crystal; also called PA3825^EAL; PA3825-EAL; source: E. coli …
B2: EAL domain of MucR (residues 425–685) (domain or fragment, Pseudomonas aeruginosa PAO1, UniProt Q9I310 425-685, looked up)
chain: SSMNANAQEQLQLLHDLRQALERRQLVLHYQPKVLAPNGPMIGVEALLRWEHPQHGLITPGQFLPLAEKTGLIVQIGEWVLDEACRQMRLWLDGGHADWNIAVNLSALQFAHAGLVDSVRNALLRHSLEPSHLILEVTESTAMRDADASLVILEQLSAMGVGISIDDFGTGYSSLLYLKRLPASELKIDRGFINELAHDSDDAAIVSAIVALGRTLNLKIVAEGVETEAQQEFLTRLGCNSLQGFLLGRPMPAEQLLASVA
notes: MucR (PA1727), Pseudomonas aeruginosa PAO1, EAL phosphodiesterase domain, residues 425-685; Cloned into pET-28a through NdeI and HindIII, which would give an N-terminal His6 tag with a thrombin site (surmised); no cleavage of the tag is described; Seen as the 'classic dimer' in the crystal, 2 molecules in the asymmetric unit; also called MucR^EAL; MucR-EAL; source: E. coli BL21 DE3, purified …

Columns and labels:
[1] = target: the molecule itself; assay: crystal structure; PA3825^EAL metal-free apo, tetragonal crystal P4_(3)2_(1)2, 1 molecule/AU, 1.60 Å
[2] = target: the molecule itself; assay: crystal structure; MucR^EAL with c-di-GMP/Mg^2+, P2_(1), 2 molecules/AU, 2.27 Å; Morpheus Buffer System 1 pH 6.5, 21 °C

Row | Protein | binding result [1] | binding result [2]
1 | B1 | binds | –
2 | B2 | – | binds
